Assay results as given in article PMC7144518, “Tumor-derived soluble CD155 inhibits DNAM-1–mediated antitumor activity of natural killer cells” (The Journal of Experimental Medicine, 2020).

T1: extracellular portion of human CD155 tagged with His protein at the C terminus (human, UniProt P15151 21-343)
T1 chain: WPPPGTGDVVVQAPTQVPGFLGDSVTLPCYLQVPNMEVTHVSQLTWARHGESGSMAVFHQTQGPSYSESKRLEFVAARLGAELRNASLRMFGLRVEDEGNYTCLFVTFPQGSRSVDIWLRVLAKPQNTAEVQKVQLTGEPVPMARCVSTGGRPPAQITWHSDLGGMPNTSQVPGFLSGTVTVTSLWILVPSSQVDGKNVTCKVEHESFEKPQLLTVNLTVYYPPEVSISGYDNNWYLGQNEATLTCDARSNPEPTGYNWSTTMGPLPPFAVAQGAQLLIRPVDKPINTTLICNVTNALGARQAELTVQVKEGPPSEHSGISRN

T2: extracellular portion of human CD155 tagged with His protein at the C terminus (human, UniProt P15151 21-343)
T2 construct: human CD155 (poliovirus receptor, nectin-like protein-5), extracellular portion; R&D Systems"); also called sCD155-His; human His-tagged sCD155; source: bought: R&D Systems; not shown: His, C-terminal, kept
T2 sequence (looked up): T1 chain

T3: extracellular portion of mouse CD155 tagged with His protein at the C terminus (mouse)
T3 chain: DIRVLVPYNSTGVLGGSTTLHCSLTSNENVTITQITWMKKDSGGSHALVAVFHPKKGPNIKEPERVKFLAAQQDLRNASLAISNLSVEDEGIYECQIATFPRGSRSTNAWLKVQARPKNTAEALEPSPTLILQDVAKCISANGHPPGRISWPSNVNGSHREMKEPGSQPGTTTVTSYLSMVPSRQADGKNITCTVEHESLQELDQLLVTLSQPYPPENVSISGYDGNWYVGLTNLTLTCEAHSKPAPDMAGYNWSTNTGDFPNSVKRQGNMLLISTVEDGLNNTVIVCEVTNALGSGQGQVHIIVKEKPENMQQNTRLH

B1: human TIGIT Fc fusion protein (Fc fusion, UniProt Q495A1 22-141, looked up)
chain: MMTGTIETTGNISAEKGGSIILQCHLSSTTAQVTQVNWEQQDQLLAICNADLGWHISPSFKDRVAPGPGLGLTLQSLTVNDTGEYFCIYHTYPDGTYTGRIFLEVLESSVAEHGARFQIP
notes: human TIGIT, extracellular portion; source: bought: R&D Systems
B2: mouse DNAM-1 Fc fusion protein (Fc fusion)
chain: EETLWDTTVRLSETMTLECVYPLTHNLTQVEWTKNTGTKTVSIAVYNPNHNMHIESNYLHRVHFLNSTVGFRNMSLSFYNASEADIGIYSCLFHAFPNGPWEKKIKVVWSDSFEIAAPSDSYLSAEPGQDVTLTCQLPRTWPVQQVIWEKVQPHQVDILASCNLSQETRYTSKYLRQTRSNCSQGSMKSILIIPNAMAADSGLYRCRSEAITGKNKSFVIRLIITDGGTNKHFILP
B3: mouse TIGIT Fc fusion protein (Fc fusion)
chain: TIDTKRNISAEEGGSVILQCHFSSDTAEVTQVDWKQQDQLLAIYSVDLGWHVASVFSDRVVPGPSLGLTFQSLTMNDTGEYFCTYHTYPGGIYKGRIFLKVQESSDDRNGLAQFQTAPLG
B4: mouse CD96 Fc fusion protein (Fc fusion)
chain: VWEELFNVGDDVYALPGSDINLTCQTKEKNFLVQMQWSKVTDKNDMIALYHPQYGLYCGQEHACESQVAATETEKGVTNWTLYLRNISSALGGKYECIFTLYPEGIKTTVYNLIVEPYTQDEHNYTIEIETNRTLEIPCFQNTSSEIPPRFTFSWLVEKDGVEEVLFTHHHHVNNSTSFKGRIRLGGDYRLHLSPVQIQDDGRTFSCHLTVNPLKAWKMSTTVKVFAKPEILMTVENSTMDVLGERVFTCLLKNVFPKANITWFIDGRFLQGNEEGIYITNEEKNCSSGFWELKSVLTRMHSGPSQSNNMTAWCMALSPGPRNKMWNTSSQPITVSFDSVIAPTKHLPTVTGSTLGTQPFSDAGVSPTGYLATPSVTIVDENGLTPDATPQTSNSSMTTKDGNYLEASSGTDAKNSSRAAASSKSGSWPFPFTSPPEWHSLPGTSTGPQEPDSPVSWIPSEVHTSAPLDASLAPHDTIISTTTEFPNVLTTANGTTKIDHGPITSIIVNQPSDGM
B5: human DNAM-1 Fc fusion protein (Fc fusion, UniProt Q15762 19-254, looked up)
chain: EEVLWHTSVPFAENMSLECVYPSMGILTQVEWFKIGTQQDSIAIFSPTHGMVIRKPYAERVYFLNSTMASNNMTLFFRNASEDDVGYYSCSLYTYPQGTWQKVIQVVQSDSFEAAVPSNSHIVSEPGKNVTLTCQPQMTWPVQAVRWEKIQPRQIDLLTYCNLVHGRNFTSKFPRQIVSNCSHGRWSVIVIPDVTVSDSGLYRCYLQASAGENETFVMRLTVAEGKTDNQYTLFVA
notes: human DNAM-1 (DNAX accessory molecule 1, CD226), extracellular portion; source: bought: R&D Systems

What was measured:
[1] = biological target: T1, extracellular portion of human CD155 …; experiment: BLI
[2] = biological target: T2, extracellular portion of human CD155 …; experiment: BLI; His-tagged recombinant CD155 (20 µg/ml) loaded on a Ni-NTA biosensor; Fc fusion proteins as analytes at three concentrations; kinetics buffer; association 120 s, dissociation 120 s; global mode of BLItz; details: both partners purified
[3] = biological target: T3, extracellular portion of mouse CD155 …; experiment: BLI

| Binder | Kd [1] [nM] | binding result [2] | Kd [3] [nM] |
| --- | --- | --- | --- |
| B1 | 15.2 | binds | – |
| B2 | – | – | 8.83 |
| B3 | – | – | 22.4 |
| B4 | – | – | 29.7 |
| B5 | 3.56 | binds | – |
